This is an account of results in patent US20190389941A1 (GLIKNIK, published 2019).

In this test the target is T1, G990 (Homo sapiens (Human), UniProt P0DOX5 218-449 = IgG part).
T1 construct: GL-2045 background (IgG1 hinge-CH2-CH3-IgG2 hinge) with G236R; homodimeric unit that multimerizes; also called stradomer G990
Description: BLI (ForteBio Octet), His-tagged receptor on sensor tip; summary grade. The method, then:
Binding of general stradomers or parent stradomer GL-2045 to FcγRI, FcγRIIb, FcγRIIIa, FcγRIIa, was assessed. RU values of dissociation were measured by biolayer interferometry using a ForteBio Octet instrument. His-tagged receptor proteins were bound to the sensor tip in 1X kinetic analysis buffer from ForteBio after which the on rate of the receptor/protein was measured by transferring the sensor tip to a 1x kinetics buffer containing the purified stradomer of choice. Off rate was measured by transferring the sensor tip to a 1X kinetics buffer, and RU value was calculated from the measured maximum binding using the ForteBio software. Biolayer interferometry detects the binding between a ligand immobilized on the biosensor tip surface and an analyte in solution. When binding occurs it produces an increase in optical thickness at the biosensor tip, which results in a wavelength shift (detected as a response unit of “RU”). The maximum binding level (RU max) is the maximum possible amount of sample binding at equilibrium that saturates the amount of ligand on the sensor surface. The RU 300 is the residual sample binding after 300 seconds of dissociation and is useful to characterize the rate of dissociation of the test article from the test ligand.

B1: FcγRIIa (receptor, UniProt P12318 34-217, looked up)
chain: QAAAPPKAVLKLEPPWINVLQEDSVTLTCQGARSPESDSIQWFHNGNLIPTHTQPSYRFKANNNDSGEYTCQTGQTSLSDPVHLTVLSEWLVLQTPHLEFQEGETIMLRCHSWKDKPLVKVTFFQNGKSQKFSHLDPTFSIPQANHSHSGDYHCTGNIGYTLFSSKPVTITVQVPSMGSSSPMG
notes: also called His-tagged receptor protein; CD32; not shown: His tag
On to B1, for which the binding result is recorded as “no binding”.

B2: FcγRIIb (receptor, UniProt P31994 43-217, looked up)
chain: TPAAPPKAVLKLEPQWINVLQEDSVTLTCRGTHSPESDSIQWFHNGNLIPTHTQPSYRFKANNNDSGEYTCQTGQTSLSDPVHLTVLSEWLVLQTPHLEFQEGETIVLRCHSWKDKPLVKVTFFQNGKSKKFSRSDPNFSIPQANHSHSGDYHCTGNIGYTLYSSKPVTITVQAP
notes: as for B1
Turning to B2, the binding result is “no binding”.
